Assay in all cases: cell-based or functional assay
The target in assay [1] is HIV-1 JR-CSF Env G324A (HIV-1 isolate JR-CSF) (UniProt P20871).
For assay [2], the target named is HIV-1 Env of isolate MGRM-C-027 (clade C pseudovirus) (HIV-1).
For assay [3], the target named is HIV-1 Env of isolate MGRM-Chronic-B-023 (subtype B), on pseudovirus (HIV-1).
The target in assay [4] is HIV-1 Env of isolate MGRM-Chronic-B-018 (subtype B), on pseudovirus (HIV-1).
In assay [5] the target is HIV-1 Env of isolate MGRM-Chronic-B-008 (subtype B), on pseudovirus (HIV-1).
Assay [6] deals with HIV-1 Env of isolate MGRM-A-013 (pseudovirus) (HIV-1).
The target of assay [7] is HIV-1 Env of isolate MG RM-C-023 (HIV-1).
Assay [8] concerns the target HIV-1 Env of isolate 92UG024 (subtype D) (HIV-1).
For assay [9], the target named is HIV-1 Env of isolate 6535.3 (subtype B), on pseudovirus (HIV-1).
Assay [10] has as its target HIV-1 Env of isolate MGRM-Chronic-B-010 (subtype B), on pseudovirus (HIV-1).
Assay [11] addresses HIV-1 Env of pseudovirus 98CN009 (HIV-1).
Assay [12] addresses HIV-1 Env of isolate MGRM-Chronic-B-012 (subtype B), on pseudovirus (HIV-1).
Assay [13] concerns the target HIV-1 Env of isolate MGRM-C-028 (clade C pseudovirus) (HIV-1).
The target of assay [14] is HIV-1 Env of isolate MGRM-A-014 (pseudovirus) (HIV-1).
Assay [15] has as its target HIV-1 Env of isolate MGRM-C-024 (clade C pseudovirus) (HIV-1).
In assay [16] the target is HIV-1 Env of isolate MG RM-D-002 (subtype D) (HIV-1).
For assay [17], the target named is HIV-1 Env of isolate 92UG114 (subtype D) (HIV-1).
In assay [18] the target is HIV-1 Env of isolate MGRM-A-010 (pseudovirus) (HIV-1).
Assay [19] concerns the target HIV-1 Env of isolate MGRM-F1-016 (subtype F) (HIV-1).
For assay [20], the target named is HIV-1 Env of isolate MG RM-D-013 (subtype D) (HIV-1).
Assay [21] deals with HIV-1 Env of isolate MGRM-C-026 (clade C pseudovirus) (HIV-1).
In assay [22] the target is HIV-1 envelope glycoprotein (Env) of isolate 92WR020 (HIV-1).
Assay [23] addresses HIV-1 Env of isolate MGRM-F1-006 (subtype F) (HIV-1).
Assay [24] concerns the target HIV-1 JR-CSF envelope glycoprotein (Env), wild type, on pseudovirus (HIV-1 isolate JR-CSF (clade B)) (UniProt P20871).
Assay [25] concerns the target HIV-1 Env of isolate MG RM-C-022 (HIV-1).
In assay [26] the target is HIV-1 Env of isolate MG RM-D-026 (subtype D) (HIV-1).
For assay [27], the target named is HIV-1 Env of isolate MGRM-F1-004 (subtype F) (HIV-1).
Assay [28] deals with HIV-1 envelope glycoprotein (Env) of isolate MG RM-A-007 (HIV-1).
For assay [29], the target named is HIV-1 envelope glycoprotein (Env) of isolate 92WR009 (HIV-1).
In assay [30] the target is HIV-1 envelope glycoprotein (Env) of isolate 92WR024 (HIV-1).
Assay [31] deals with HIV-1 Env of isolate MG RM-D-014 (subtype D) (HIV-1).
For assay [32], the target named is HIV-1 Env of isolate MG RM-D-011 (subtype D) (HIV-1).
The target in assay [33] is HIV-1 Env of isolate MG RM-D-020 (subtype D) (HIV-1).
In assay [34] the target is HIV-1 Env of isolate 93TH305 (subtype B), on pseudovirus (HIV-1).
Assay [35] concerns the target HIV-1 Env of isolate MG RM-D-019 (subtype D) (HIV-1).
Assay [36] addresses HIV-1 Env of isolate MGRM-F1-010 (subtype F) (HIV-1).
Assay [37] addresses HIV-1 Env of isolate MG RM-D-016 (subtype D) (HIV-1).
For assay [38], the target named is HIV-1 Env of isolate 92UG046 (subtype D) (HIV-1).
The target of assay [39] is HIV-1 JR-CSF Env I326A (HIV-1 isolate JR-CSF) (UniProt P20871).
The target in assay [40] is HIV-1 Env of isolate APV-17 (Clade B) (HIV-1).
The target in assay [41] is HIV-1 Env of isolate APV-13 (Clade B) (HIV-1).
Assay [42] deals with aMLV envelope on pseudotyped virus (negative control) (aMLV).
The target of assay [43] is HIV-1 envelope glycoprotein (Env) of isolate 93UG077 (HIV-1).
Assay [44] has as its target HIV-1 JR-CSF Env N276A (HIV-1 (isolate JR-CSF)) (UniProt P20871).

Sequence of 1443_C16 (PG16) (TCN-116) (antibody) (VH): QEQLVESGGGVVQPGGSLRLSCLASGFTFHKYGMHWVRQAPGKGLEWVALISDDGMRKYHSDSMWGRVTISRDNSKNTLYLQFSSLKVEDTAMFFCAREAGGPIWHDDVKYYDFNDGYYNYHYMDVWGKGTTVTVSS
Sequence of 1443_C16 (PG16) (TCN-116) (antibody) (VL): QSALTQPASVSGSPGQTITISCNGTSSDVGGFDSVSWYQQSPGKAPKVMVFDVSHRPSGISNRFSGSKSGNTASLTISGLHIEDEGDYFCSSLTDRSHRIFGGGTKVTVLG

Turning to 4858_P08 (PGT-123) (antibody), in assay [1], the Fold IC50 increase relative to wild-type is 14.5 fold.

As usually defined, the IC50 is the concentration needed to halve the response being measured. For the substance 1496_C09 (PG9) (TCN-109) (antibody), the IC50 (µg/mL), single-round pseudovirus neutralization in assay [2] came out at 5.36 µg/mL; in assay [13], 0.067 µg/mL; in assay [15], 0.227 µg/mL; in assay [21] it was 0.06 µg/mL. The IC50, single-round pseudovirus neutralization in assay [3] stood at 0.027 µg/mL; in assay [4], 0.216 µg/mL; in assay [5] it was 8.78 µg/mL; in [9], 1.05 µg/mL; in [10], 0.004 µg/mL; in [12], 0.2 µg/mL. Moreover, the IC50, single-round pseudovirus neutralization in [34] is 8.12 µg/mL. Moreover, the IC50 (µg/mL), pseudovirus neutralization is 0.122 µg/mL in assay [6]; 0.614 µg/mL in assay [7]; 1.86 µg/mL in [8]; 1.25 µg/mL in assay [14]; 0.021 µg/mL in [16]; 40.6 µg/mL in assay [17]. In addition, the IC50 (µg/mL), pseudovirus neutralization in assay [18] amounted to 0.022 µg/mL; in assay [19], 0.518 µg/mL; in [20], 0.021 µg/mL; in assay [23], 7.25 µg/mL; in assay [25], 0.346 µg/mL; in assay [26], 23.7 µg/mL. The IC50 (µg/mL), pseudovirus neutralization in [27] came out at 0.175 µg/mL; in assay [31], 0.023 µg/mL; in [32] it was 0.071 µg/mL; in [33], 1.67 µg/mL; in assay [35], 0.038 µg/mL; in assay [36] it was 0.012 µg/mL. For the same substance, the IC50 (µg/mL), pseudovirus neutralization in [37] was determined as 0.098 µg/mL; in assay [38] it was 1.86 µg/mL. The same substance gave an IC50, pseudovirus neutralization in assay [11] of 0.371 µg/mL. The IC50 in assay [22] worked out at 0.141 µg/mL; in assay [28], 1.06 µg/mL; in assay [29], 0.05 µg/mL; in [30], 0.258 µg/mL. This substance came in with an IC50 (ug/ml), pseudovirus neutralization, TZM-bl assay in assay [24] of 0.006 µg/mL.

In the case of 5114_A19 (PGT-128) (antibody), the Fold IC50 increase relative to wild-type in assay [39] turned out to be 1.6 fold.

For b12 (antibody), the IC90 (neutralization of pseudovirus) in assay [40] and in assay [41] was greater than 50 µg/mL in each case.

The substance 5145_B14 (PGT-127) (antibody) yielded a Fold IC50 increase relative to wild-type in assay [39] of 3.5 fold.

For 1443_C16 (PG16) (TCN-116) (antibody), the IC90 (neutralization of pseudovirus) in assay [40] was greater than 50 µg/mL. This substance registered an IC50 (ug/ml), pseudovirus neutralization, TZM-bl assay in assay [24] of 0.001 µg/mL. In [42], this substance showed an IC50, Neutralizing Antibody Assay, Virus/Ab Incubation 1 hour greater than 50 µg/mL and an IC50, Neutralizing Antibody Assay, Virus/Ab Incubation 18 hour greater than 50 µg/mL. In [41], this substance displayed an IC90 (neutralization of pseudovirus) greater than 50 µg/mL.

In the case of 5141_B17 (PGT-126) (antibody), in [43], the Neutralization IC80 is 0.102 µg/mL, the Neutralization IC90 is 0.238 µg/mL, the Neutralization IC95 worked out at 0.577 µg/mL and the neutralization IC50 is 0.0256 µg/mL.

As to PGV04 (antibody), the IC50 (µg/mL), single-round pseudovirus neutralization is 2.76 µg/mL in [2], 0.149 µg/mL in assay [13], greater than 50 µg/mL in assay [15] and 0.303 µg/mL in [21]. Besides, the IC50, single-round pseudovirus neutralization is 0.139 µg/mL in assay [3]; 0.164 µg/mL in assay [4]; 0.166 µg/mL in assay [5]; 0.757 µg/mL in assay [9]; 0.744 µg/mL in [10]; greater than 50 µg/mL in [12]. Also, the IC50, single-round pseudovirus neutralization in assay [34] worked out at 0.255 µg/mL. Further, the IC50 (µg/mL), pseudovirus neutralization in assay [6] was 0.086 µg/mL; in assay [7], 0.128 µg/mL; in assay [8], 0.201 µg/mL; in assay [14], 0.172 µg/mL; in assay [16], 0.322 µg/mL; in assay [17], 0.461 µg/mL. Also, the IC50 (µg/mL), pseudovirus neutralization is 0.205 µg/mL in assay [18]; 0.268 µg/mL in assay [19]; 0.088 µg/mL in assay [20]; greater than 50 µg/mL in assay [23]; 18.3 µg/mL in assay [25]; 1.76 µg/mL in assay [26]. For the same substance, the IC50 (µg/mL), pseudovirus neutralization in assay [27] turned out to be 0.58 µg/mL; in [31] it was 0.194 µg/mL; in assay [32], 0.025 µg/mL; in [33], 0.097 µg/mL; in [35], 0.35 µg/mL; in assay [36], 0.184 µg/mL. Moreover, the IC50 (µg/mL), pseudovirus neutralization turned out to be 0.201 µg/mL in assay [37] and 22.4 µg/mL in assay [38]. The IC50 in [43] is 0.083 µg/mL; in [22], 0.055 µg/mL; in assay [28] it was 7.21 µg/mL; in assay [29], 0.108 µg/mL; in assay [30], 0.31 µg/mL. This substance returned an IC50, pseudovirus neutralization in assay [11] of 0.0125 µg/mL.

Regarding 5136_H01 (PGT-131) (antibody), the Fold IC50 increase relative to wild-type in assay [44] was 0.8 fold.

As for 1495_C14 (PGC14) (antibody), in assay [42], the IC50, Neutralizing Antibody Assay, Virus/Ab Incubation 1 hour was greater than 50 µg/mL and the IC50, Neutralizing Antibody Assay, Virus/Ab Incubation 18 hour was greater than 50 µg/mL.

Take 5147_N06 (PGT-130) (antibody): the Fold IC50 increase relative to wild-type in [1] is greater than 50 fold.

With 5343_B08 (PGT-135) (antibody), the Fold IC50 increase relative to wild-type in assay [44] came out at 2.5 fold.

The record behind these values is patent US20240132578A1.
